Where two headings read alike, the source gives them in different places.

Experiment in all cases: EMSA
(In general: A gel shift assay detects complexes by their altered migration in electrophoresis.)

Series [1] addresses T1, PU.1 (UniProt P17433 1-272).
Series [2] deals with T2, STAT5 (STAT5a cDNA used for the retroviral construct) (UniProt P42230 1-793).
The target of series [3] is T1, PU.1. This is another data set of the same source.
The target of series [4] is T2, STAT5 (STAT5a cDNA used for the …). The source holds these as a separate data set.

T2 sequence (P42230 whole entry): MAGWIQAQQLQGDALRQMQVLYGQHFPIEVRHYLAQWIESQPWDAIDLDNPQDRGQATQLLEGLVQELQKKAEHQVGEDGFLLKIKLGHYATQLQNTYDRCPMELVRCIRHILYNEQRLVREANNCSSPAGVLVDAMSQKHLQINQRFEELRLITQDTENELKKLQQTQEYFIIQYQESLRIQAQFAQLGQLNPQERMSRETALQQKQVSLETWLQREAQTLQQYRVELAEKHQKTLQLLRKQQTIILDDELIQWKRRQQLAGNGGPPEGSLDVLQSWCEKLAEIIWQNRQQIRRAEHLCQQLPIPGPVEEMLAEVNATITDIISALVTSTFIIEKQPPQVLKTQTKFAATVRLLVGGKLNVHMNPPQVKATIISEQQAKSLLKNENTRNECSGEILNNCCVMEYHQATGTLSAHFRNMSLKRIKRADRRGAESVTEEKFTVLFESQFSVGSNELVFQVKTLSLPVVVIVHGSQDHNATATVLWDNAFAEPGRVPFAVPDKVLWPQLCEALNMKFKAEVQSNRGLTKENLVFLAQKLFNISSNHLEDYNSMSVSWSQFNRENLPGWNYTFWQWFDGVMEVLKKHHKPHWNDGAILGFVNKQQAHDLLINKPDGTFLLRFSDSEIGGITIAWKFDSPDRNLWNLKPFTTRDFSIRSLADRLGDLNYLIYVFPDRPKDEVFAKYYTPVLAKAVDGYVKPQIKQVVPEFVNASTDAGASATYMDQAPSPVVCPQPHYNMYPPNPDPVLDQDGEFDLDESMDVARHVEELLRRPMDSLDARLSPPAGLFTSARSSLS

B1: κE3' PU.1-STAT5 probe (dsDNA)
DNA 1: CTTTGAGGAACTGAAAACAGAACCT
DNA 2: AGGTTCTGTTTTCAGTTCCTCAAAG
In the case of B1, the binding result (with PU.1 [1]; in series [2]) was “binds” in each case.

B2: SV40 PU.1 probe (dsDNA)
DNA 1: TGAAATAACCTCTGAAAGAGGAACTTGGTTAGGTA
DNA 2: TACCTAACCAAGTTCCTCTTTCAGAGGTTATTTCA
In the case of B2, the figures for the binding result (with PU.1 [3]; in series [4]) were “binds” and “no binding”, respectively.
